From article PMC2626169 (Developmental biology, 2008)
Residue numbers refer to the chain shown, from its start. In names and notes the source's numbering stands.

Assays:
SEL-10(G567E) = molecular target: T1, SEL-10(G567E) (C. elegans, UniProt Q93794 1-587, G567E); assay: two-hybrid
T1 sequence (looked up): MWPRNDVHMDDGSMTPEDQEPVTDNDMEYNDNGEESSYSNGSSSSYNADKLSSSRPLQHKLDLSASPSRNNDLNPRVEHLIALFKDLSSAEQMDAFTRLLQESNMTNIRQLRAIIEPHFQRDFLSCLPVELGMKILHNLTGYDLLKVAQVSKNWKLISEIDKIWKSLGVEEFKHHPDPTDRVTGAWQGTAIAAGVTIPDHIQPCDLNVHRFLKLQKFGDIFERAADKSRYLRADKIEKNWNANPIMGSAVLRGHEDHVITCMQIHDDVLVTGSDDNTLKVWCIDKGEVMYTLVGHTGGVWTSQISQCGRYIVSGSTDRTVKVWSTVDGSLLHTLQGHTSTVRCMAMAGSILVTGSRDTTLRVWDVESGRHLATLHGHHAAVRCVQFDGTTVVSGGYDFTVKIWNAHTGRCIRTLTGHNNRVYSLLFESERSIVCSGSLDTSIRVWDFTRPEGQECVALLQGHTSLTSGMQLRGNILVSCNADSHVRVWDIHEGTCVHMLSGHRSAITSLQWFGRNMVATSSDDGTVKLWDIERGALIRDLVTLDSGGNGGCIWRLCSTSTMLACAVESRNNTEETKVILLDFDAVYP

SEL-10, wild type = molecular target: T2, SEL-10, wild type (C. elegans, UniProt Q93794 1-587); assay: two-hybrid
T2 sequence (looked up): T1 sequence (looked up) with E567G

B1: SKR-1 (Skp1-related 1), wild type (natural protein, C. elegans, UniProt G5ECU1 1-176, looked up)
chain: MADQKKVSEAAKEREIKISSSDNEIFLVPRNVIRLSNTINTLLMDLGLDDEEGTNAEPIPVQNVTASILKKVISWCNHHHSDPISTEDSDNREKRTDDIGSWDVEFLKVDQGTLFELILAANYLDIKGLLDVTCKTVANMIKGKSPEEIRRTFNIKNDFTPEEEEQIRKENAWCED
SEL-10(G567E)
  beta-galactosidase activity (CPRG), percent of SKR-1/SEL-10: 3%

B2: SKR-1(M140I) (natural protein, C. elegans, UniProt G5ECU1 1-176, looked up)
chain: B1 chain with M140I
SEL-10(G567E)
  beta-galactosidase activity (CPRG), percent of SKR-1/SEL-10: 0.4%
SEL-10, wild type
  beta-galactosidase activity (CPRG), percent of SKR-1/SEL-10: 37%
